B1: Centrosomal protein POC5 (Homo sapiens), Q8NA72 (parent)
chain: MSSDEEKYSLPVVQNDSSRGSSVSSNLQEEYEELLHYAIVTPNIEPCASQSSHPKGELVPDVRISTIHDILHSQGNNSEVRETAIEVGKGCDFHISSHSKTDESSPVLSPRKPSHPVMDFFSSHLLADSSSPATNSSHTDAHEILVSDFLVSDENLQKMENVLDLWSSGLKTNIISELSKWRLNFIDWHRMEMRKEKEKHAAHLKQLCNQINELKELQKTFEISIGRKDEVISSLSHAIGKQKEKIELMRTFFHWRIGHVRARQDVYEGKLADQYYQRTLLKKVWKVWRSVVQKQWKDVVERACQARAEEVCIQISNDYEAKVAMLSGALENAKAEIQRMQHEKEHFEDSMKKAFMRGVCALNLEAMTIFQNRNDAGIDSTNNKKEEYGPGVQGKEHSAHLDPSAPPMPLPVTSPLLPSPPAAVGGASATAVPSAASMTSTRAASASSVHVPVSALGAGSAATAASEEMYVPRVVTSAQQKAGRTITARITGRCDFASKNRISSSLAIMGVSPPMSSVVVEKHHPVTVQTIPQATAAKYPRTIHPESSTSASRSLGTRSAHTQSLTSVHSIKVVD
partner: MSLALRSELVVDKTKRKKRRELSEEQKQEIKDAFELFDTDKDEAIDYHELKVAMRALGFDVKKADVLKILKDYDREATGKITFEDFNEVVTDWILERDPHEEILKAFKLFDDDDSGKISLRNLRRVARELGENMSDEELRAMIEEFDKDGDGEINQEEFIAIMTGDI
B2: E3 ubiquitin-protein ligase LNX (Homo sapiens), Q8TBB1 (parent)
chain: MNQPESANDPEPLCAVCGQAHSLEENHFYSYPEEVDDDLICHICLQALLDPLDTPCGHTYCTLCLTNFLVEKDFCPMDRKPLVLQHCKKSSILVNKLLNKLLVTCPFREHCTQVLQRCDLEHHFQTSCKGASHYGLTKDRKRRSQDGCPDGCASLTATAPSPEVSAAATISLMTDEPGLDNPAYVSSAEDGQPAISPVDSGRSNRTRARPFERSTIRSRSFKKINRALSVLRRTKSGSAVANHADQGRENSENTTAPEVFPRLYHLIPDGEITSIKINRVDPSESLSIRLVGGSETPLVHIIIQHIYRDGVIARDGRLLPGDIILKVNGMDISNVPHNYAVRLLRQPCQVLWLTVMREQKFRSRNNGQAPDAYRPRDDSFHVILNKSSPEEQLGIKLVRKVDEPGVFIFNVLDGGVAYRHGQLEENDRVLAINGHDLRYGSPESAAHLIQASERRVHLVVSRQVRQRSPDIFQEAGWNSNGSWSPGPGERSNTPKPLHPTITCHEKVVNIQKDPGESLGMTVAGGASHREWDLPIYVISVEPGGVISRDGRIKTGDILLNVDGVELTEVSRSEAVALLKRTSSSIVLKALEVKEYEPQEDCSSPAALDSNHNMAPPSDWSPSWVMWLELPRCLYNCKDIVLRRNTAGSLGFCIVGGYEEYNGNKPFFIKSIVEGTPAYNDGRIRCGDILLAVNGRSTSGMIHACLARLLKELKGRITLTIVSWPGTFL
partner: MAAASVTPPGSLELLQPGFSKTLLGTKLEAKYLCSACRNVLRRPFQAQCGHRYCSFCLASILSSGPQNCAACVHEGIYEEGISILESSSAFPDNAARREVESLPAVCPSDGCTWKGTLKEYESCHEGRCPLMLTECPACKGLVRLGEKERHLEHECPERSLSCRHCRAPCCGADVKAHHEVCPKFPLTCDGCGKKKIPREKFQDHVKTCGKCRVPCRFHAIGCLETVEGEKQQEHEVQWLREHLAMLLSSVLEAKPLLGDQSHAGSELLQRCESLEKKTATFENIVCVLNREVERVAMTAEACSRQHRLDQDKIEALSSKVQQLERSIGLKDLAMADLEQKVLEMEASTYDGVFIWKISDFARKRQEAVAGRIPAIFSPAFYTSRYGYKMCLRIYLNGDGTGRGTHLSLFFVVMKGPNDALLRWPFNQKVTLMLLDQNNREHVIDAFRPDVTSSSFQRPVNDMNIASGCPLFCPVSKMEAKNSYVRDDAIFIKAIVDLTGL
B3: E3 ubiquitin-protein ligase LNX (Homo sapiens), Q8TBB1 (parent)
chain: B2 chain
partner: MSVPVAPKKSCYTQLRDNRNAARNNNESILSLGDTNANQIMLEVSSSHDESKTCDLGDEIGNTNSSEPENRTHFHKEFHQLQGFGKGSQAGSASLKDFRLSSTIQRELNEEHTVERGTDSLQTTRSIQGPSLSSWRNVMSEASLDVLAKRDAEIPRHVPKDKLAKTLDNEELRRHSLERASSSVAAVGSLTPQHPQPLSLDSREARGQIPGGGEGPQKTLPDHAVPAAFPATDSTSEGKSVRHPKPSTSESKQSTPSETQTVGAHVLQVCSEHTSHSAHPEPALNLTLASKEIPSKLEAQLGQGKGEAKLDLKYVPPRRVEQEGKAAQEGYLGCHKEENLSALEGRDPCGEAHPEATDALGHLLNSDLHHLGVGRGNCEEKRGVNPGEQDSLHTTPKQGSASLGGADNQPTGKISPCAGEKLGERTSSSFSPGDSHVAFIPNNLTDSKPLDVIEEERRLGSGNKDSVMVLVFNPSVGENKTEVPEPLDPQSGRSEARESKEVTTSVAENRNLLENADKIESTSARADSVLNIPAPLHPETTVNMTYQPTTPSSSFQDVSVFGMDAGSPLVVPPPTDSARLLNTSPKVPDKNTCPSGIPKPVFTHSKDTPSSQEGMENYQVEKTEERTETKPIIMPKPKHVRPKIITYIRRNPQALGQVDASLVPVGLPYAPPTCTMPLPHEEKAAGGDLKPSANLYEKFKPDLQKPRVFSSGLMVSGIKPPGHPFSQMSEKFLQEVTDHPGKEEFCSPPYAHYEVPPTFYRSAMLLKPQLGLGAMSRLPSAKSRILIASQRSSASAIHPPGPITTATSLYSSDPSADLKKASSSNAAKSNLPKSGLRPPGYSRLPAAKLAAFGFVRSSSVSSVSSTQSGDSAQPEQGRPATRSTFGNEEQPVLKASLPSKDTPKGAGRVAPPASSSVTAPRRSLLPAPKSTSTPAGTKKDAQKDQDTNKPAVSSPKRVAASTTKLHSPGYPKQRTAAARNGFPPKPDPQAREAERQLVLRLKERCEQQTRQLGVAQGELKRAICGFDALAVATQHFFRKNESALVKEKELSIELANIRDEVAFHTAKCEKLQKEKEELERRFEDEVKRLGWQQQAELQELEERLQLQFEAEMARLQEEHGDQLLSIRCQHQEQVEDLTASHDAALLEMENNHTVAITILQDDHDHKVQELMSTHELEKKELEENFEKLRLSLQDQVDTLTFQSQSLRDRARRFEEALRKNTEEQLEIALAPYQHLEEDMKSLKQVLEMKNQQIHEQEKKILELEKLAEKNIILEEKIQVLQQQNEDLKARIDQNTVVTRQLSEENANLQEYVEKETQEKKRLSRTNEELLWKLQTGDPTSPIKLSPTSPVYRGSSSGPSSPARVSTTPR
B4: E3 ubiquitin-protein ligase LNX (Homo sapiens), Q8TBB1 (parent)
chain: B2 chain
partner: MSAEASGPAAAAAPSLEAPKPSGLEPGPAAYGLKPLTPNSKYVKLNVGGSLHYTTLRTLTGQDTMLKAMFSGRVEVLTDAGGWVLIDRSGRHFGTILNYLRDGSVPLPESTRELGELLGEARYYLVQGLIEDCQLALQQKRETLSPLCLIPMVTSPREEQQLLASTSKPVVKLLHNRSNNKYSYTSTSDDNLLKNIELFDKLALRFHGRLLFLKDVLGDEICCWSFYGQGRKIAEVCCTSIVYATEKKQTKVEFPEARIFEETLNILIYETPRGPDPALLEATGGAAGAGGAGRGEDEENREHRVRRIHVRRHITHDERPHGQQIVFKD

Variants of: B1
Conditions: with cetn3_human CETN3, O15182

Row | effect of a mutation on the interaction | Variant
1 | with no effect | MSSDEEKYSLPVVQNDSSRGSSVSSNLQEEYEELLHYAIVTPNIEPCASQSSHPKGELVPDVRISTIHDILHSQGNNSEVRETAIEVGKGCDFHISSHSKTDESSPVLSPRKPSHPVMDFFSSHLLADSSSPATNSSHTDAHEILVSDFLVSDENLQKMENVLDLWSSGLKTNIISELSKWRLNFIDWHRMEMRKEKEKHAAHLKQLCNQINELKELQKTFEISIGRKDEVISSLSHAIGKQKEKIELMRTFFHWRIGHVRARQDVYEGKLADQYYQRTLLKKVWKVWRSVVQKQWKDVVERACQARAEEVCIQISNDYEAKVAMLSGALENAKAEIQRMQHEKEHFEDSMKKAFMRGVCALNLEAMTIFQNRNDAGIDSTNNKKEEYGPGVQGKEHSAHLDPSAPPMPLPVTSPLLPSPPAAVGGASATAVPSAASMTSTRAASASSVHVPVSALGAGSAATAASEETYVPRVVTSAQQKAGRTITARITGRCDFASKNRISSSLAIMGVSPPMSSVVVEKHHPVTVQTIPQATAAKYPRTIHPESSTSASRSLGTRSAHTQSLTSVHSIKVVD [M469T]

Variants of: B2
Conditions: with traf2_human TRAF2, Q12933

Row | effect of a mutation on the interaction | Variant
2 | disrupting interaction strength | E295K

Variants of: B3
Conditions: with mtus2_human MTUS2, Q5JR59

Row | effect of a mutation on the interaction | Variant
3 | disrupting interaction strength | E295K

Variants of: B4
Conditions: with bacd1_human KCTD13, Q8WZ19

Row | effect of a mutation on the interaction | Variant
4 | disrupting interaction strength | E295K

Source: IntAct's records for PubMed 29892012
